Test results published in publication PMC11619291, “Functional and structural analyses of IMP-27 metallo-β-lactamase: evolution of IMP-type enzymes to overcome Zn(II) deprivation” (Microbiology Spectrum, 2024).

Experiments:
Experiment in all cases: purified protein
Conditions in all cases: no added Zn(II), 20 mM HEPES pH 7.5, 30°C
[1] = test system: CC1=C(C(=O)O)N2C(=O)[C@@H](NC(=O)[C@H](N)c3ccccc3)[C@H]2SC1
[2] = test system: CC(=O)OCC1=C(C(=O)O)N2C(=O)[C@@H](NC(=O)Cc3cccs3)[C@H]2SC1; format: biochemical, Serratia marcescens
Source text: (§1) steady-state hydrolysis, UV-VIS spectrophotometry on IMP-1

[3] = test system: CC(C)(O/N=C(\C(=O)N[C@@H]1C(=O)N2C(C(=O)[O-])=C(C[n+]3ccccc3)CS[C@H]12)c1csc(N)n1)C(=O)O; format: biochemical, Serratia marcescens
Source text: as §1

[4] = test system: CC1(C)S[C@@H]2[C@H](NC(=O)Cc3ccccc3)C(=O)N2[C@H]1C(=O)O; format: biochemical, Serratia marcescens
Source text: as §1

[5] = test system: CC1(C)S[C@@H]2[C@H](NC(=O)[C@H](N)c3ccccc3)C(=O)N2[C@H]1C(=O)O; format: biochemical, Serratia marcescens
Source text: as §1

[6] = test system: CO/N=C(\C(=O)N[C@@H]1C(=O)N2C(C(=O)O)=C(COC(C)=O)CS[C@H]12)c1csc(N)n1; format: biochemical, Serratia marcescens
Source text: as §1

[7] = test system: C[C@@H](O)[C@H]1C(=O)N2C(C(=O)O)=C(SCCN=CN)C[C@H]12; format: biochemical, Serratia marcescens
Source text: as §1

[8] = test system: C[C@@H](O)[C@H]1C(=O)N2C(C(=O)O)=C(S[C@@H]3CN[C@H](C(=O)N(C)C)C3)[C@H](C)[C@H]12; format: biochemical, Serratia marcescens
Source text: as §1

[9] = test system: CC(=O)OCC1=C(C(=O)O)N2C(=O)[C@@H](NC(=O)Cc3cccs3)[C@H]2SC1; format: biochemical, Morganella morganii
Source text: (§2) steady-state hydrolysis, UV-VIS spectrophotometry on IMP-27

[10] = test system: CC(C)(O/N=C(\C(=O)N[C@@H]1C(=O)N2C(C(=O)[O-])=C(C[n+]3ccccc3)CS[C@H]12)c1csc(N)n1)C(=O)O; format: biochemical, Morganella morganii
Source text: as §2

[11] = test system: CC1(C)S[C@@H]2[C@H](NC(=O)Cc3ccccc3)C(=O)N2[C@H]1C(=O)O; format: biochemical, Morganella morganii
Source text: as §2

[12] = test system: CC1(C)S[C@@H]2[C@H](NC(=O)[C@H](N)c3ccccc3)C(=O)N2[C@H]1C(=O)O; format: biochemical, Morganella morganii
Source text: as §2

[13] = test system: CO/N=C(\C(=O)N[C@@H]1C(=O)N2C(C(=O)O)=C(COC(C)=O)CS[C@H]12)c1csc(N)n1; format: biochemical, Morganella morganii
Source text: as §2

[14] = test system: C[C@@H](O)[C@H]1C(=O)N2C(C(=O)O)=C(S[C@@H]3CN[C@H](C(=O)N(C)C)C3)[C@H](C)[C@H]12; format: biochemical, Morganella morganii
Source text: as §2

In the case of IMP-1 (Serratia marcescens), the Km [1] is reported as 18.5 ± 2.9 µM, the kcat [1] is reported as 75.1 s⁻¹ and the kcat/Km [1] is reported as 4.06e+06 M⁻¹ s⁻¹. The Km [2] was 1.62 ± 0.21 µM, the kcat [2] was 82.5 ± 5.9 s⁻¹ and the kcat/Km [2] was 5.11e+07 M⁻¹ s⁻¹. It also gave a Km [3] of 38.1 ± 1.6 µM, a kcat [3] of 14.2 ± 0.8 s⁻¹ and a kcat/Km [3] of 373000 M⁻¹ s⁻¹. It also gave a Km [4] of 144 ± 6 µM, a kcat [4] of 367 ± 38 s⁻¹ and a kcat/Km [4] of 2.56e+06 M⁻¹ s⁻¹. It also gave a Km [5] of 41.8 ± 7.6 µM, a kcat [5] of 37.6 ± 3.1 s⁻¹ and a kcat/Km [5] of 899000 M⁻¹ s⁻¹. For the same substance, the Km [6] was 3.44 ± 0.12 µM, the kcat [6] was 26 ± 1.8 s⁻¹ and the kcat/Km [6] was 7.55e+06 M⁻¹ s⁻¹. The Km [7] was 48.6 ± 10.2 µM, the kcat [7] was 87.6 ± 4.5 s⁻¹ and the kcat/Km [7] was 1.88e+06 M⁻¹ s⁻¹. For the same substance, the Km [8] was 83.3 ± 16.1 µM, the kcat [8] was 25.1 ± 4.4 s⁻¹ and the kcat/Km [8] was 301000 M⁻¹ s⁻¹.
Substance IMP-27 (Morganella morganii) has a Km [1] of 5.47 ± 0.53 µM, a kcat [1] of 1.19 s⁻¹ and a kcat/Km [1] of 217000 M⁻¹ s⁻¹. The Km [9] was 9.23 ± 0.88 µM, the kcat [9] was 290 ± 39 s⁻¹ and the kcat/Km [9] was 3.14e+07 M⁻¹ s⁻¹. For the same substance, the Km [10] was 27.5 ± 3.4 µM, the kcat [10] was 2.02 ± 0.3 s⁻¹ and the kcat/Km [10] was 73200 M⁻¹ s⁻¹. It also gave a Km [11] of 218 ± 28 µM, a kcat [11] of 20.3 ± 2.2 s⁻¹ and a kcat/Km [11] of 93200 M⁻¹ s⁻¹. The kcat [12] was > 7.25 s⁻¹, the kcat/Km [12] was 28800 M⁻¹ s⁻¹ and the Km [13] was 6.57 ± 0.96 µM. The kcat [13] was 50.7 ± 6.6 s⁻¹, the kcat/Km [13] was 7.72e+06 M⁻¹ s⁻¹ and the Km [14] was 4.21 ± 0.29 µM. It also gave a kcat [14] of 6.79 ± 0.8 s⁻¹ and a kcat/Km [14] of 1.63e+06 M⁻¹ s⁻¹.
